# Target: bovine heart cytochrome c oxidase (bovine) (UniProt P00396)
# Assay: crystal structure; co-crystallised by the batch-wise method at 277 K; 15 mM sodium phosphate pH 8.0, DM and FOM, Cyt.c/CcO molar ratio 1.2, ~5% PEG 4000; ferri-Cyt.c and oxidized CcO; crystals soaked with 50 uM Cyt.c; refined at 2.0 A
substance,measurement,value
bovine heart cytochrome c oxidase (from UniProt P00396 1-514; P68530 1-227; P00429 1-86) (complex),stoichiometry N,2
